According to patent US20260234738A1:

Molecular target: SARS-CoV-2 spike protein variant Y483A on VSV pseudoparticles (SARS-CoV-2) (UniProt P0DTC2)
Assay: cell-based or functional assay

Substance: mAb10987 (antibody)
- Relative neutralization at 5 µg/ml: 99%
